This is an account of results in article PMC6610660 (Structure (London, England : 1993), 2019).

Data set [1] deals with ScNatA/Naa50 (Saccharomyces cerevisiae, UniProt P07347+P12945+Q08689). Put plainly: X-ray crystal structure, […] Å. Format: binding. The conditions noted are these: site between Naa10 and Naa15.
The target of data set [2] is T1, SpNatA (Schizosaccharomyces pombe, UniProt O74985+Q9UTI3).
T1 sequence (Q9UTI3 1-156): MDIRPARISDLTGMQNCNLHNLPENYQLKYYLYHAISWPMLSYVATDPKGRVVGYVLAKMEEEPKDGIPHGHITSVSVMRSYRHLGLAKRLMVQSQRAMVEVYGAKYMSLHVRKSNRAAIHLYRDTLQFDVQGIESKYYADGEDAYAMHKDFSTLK
T1 sequence (O74985 1-729): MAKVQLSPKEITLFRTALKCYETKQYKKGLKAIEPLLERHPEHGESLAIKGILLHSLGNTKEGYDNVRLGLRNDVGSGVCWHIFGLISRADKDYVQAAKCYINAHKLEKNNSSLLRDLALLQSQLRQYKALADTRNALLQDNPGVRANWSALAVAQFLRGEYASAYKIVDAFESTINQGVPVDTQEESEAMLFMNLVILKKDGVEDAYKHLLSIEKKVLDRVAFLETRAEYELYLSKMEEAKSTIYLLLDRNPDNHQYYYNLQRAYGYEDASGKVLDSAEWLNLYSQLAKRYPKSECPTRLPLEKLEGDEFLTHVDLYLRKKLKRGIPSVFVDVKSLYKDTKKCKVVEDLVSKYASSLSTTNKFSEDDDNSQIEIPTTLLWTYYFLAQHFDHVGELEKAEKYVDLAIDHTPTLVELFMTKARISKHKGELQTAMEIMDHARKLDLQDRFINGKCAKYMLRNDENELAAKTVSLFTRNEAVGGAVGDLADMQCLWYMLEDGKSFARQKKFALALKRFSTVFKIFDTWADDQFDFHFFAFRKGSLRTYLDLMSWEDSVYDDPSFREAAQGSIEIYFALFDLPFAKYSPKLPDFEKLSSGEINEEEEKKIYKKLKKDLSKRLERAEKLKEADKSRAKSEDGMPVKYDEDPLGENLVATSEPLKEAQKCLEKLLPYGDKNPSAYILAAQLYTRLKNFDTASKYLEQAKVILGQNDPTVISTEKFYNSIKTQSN
Briefly: ITC. Type of data set: binding. The settings on record: 20 °C, pH 7.0, 200 mM NaCl, 1 mM DTT; Naa10 site.

The target of data set [3] is GST-ScNaa50 (Saccharomyces cerevisiae, UniProt Q08689). Put plainly: ITC. Format: binding. The settings on record: 20 °C, pH 7.0, 200 mM NaCl, 1 mM DTT; GST fusion, free GST negative.
Data set [4] has as its target Schizosaccharomyces pombe Naa50 (S. pombe). Briefly: differential scanning fluorimetry.
Data set [5] deals with Schizosaccharomyces pombe Naa50 labeled with Fluorescein-5-Maleimide (S. pombe). Put plainly: fluorescence polarisation.
Data set [6] addresses T2, human Naa50 (human, UniProt Q9GZZ1 1-169).
T2 sequence: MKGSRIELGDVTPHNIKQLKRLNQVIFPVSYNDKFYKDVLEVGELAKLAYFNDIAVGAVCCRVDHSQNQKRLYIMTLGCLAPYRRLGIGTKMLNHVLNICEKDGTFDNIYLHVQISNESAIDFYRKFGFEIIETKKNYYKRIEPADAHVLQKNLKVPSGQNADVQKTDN
Put plainly: differential scanning fluorimetry. (In general: In DSF a fluorescence change marks the thermal transition of the protein.)

Chain of ScNatA/Naa50 (Q08689 whole entry, one chain of several): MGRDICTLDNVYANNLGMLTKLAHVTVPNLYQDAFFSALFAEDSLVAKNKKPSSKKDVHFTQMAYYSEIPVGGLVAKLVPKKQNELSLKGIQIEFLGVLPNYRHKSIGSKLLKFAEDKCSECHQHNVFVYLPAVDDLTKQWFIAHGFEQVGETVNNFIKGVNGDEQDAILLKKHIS
Chain of GST-ScNaa50 (Q08689 whole entry, the tested form may be a part): as the sequence (Q08689 whole entry, one chain of several) above

In the case of `O=P(O)(O)O[C@H]1[C@H](OP(=O)(O)O)[C@@H](OP(=O)(O)O)[C@H](OP(=O)(O)O)[C@@H](OP(=O)(O)O)[C@H]1OP(=O)(O)O` [IP6], in data set [1], the “X-ray crystal structure, 2.7 Å” value is “Clear electron density for IP6 was visible between Naa10 and Naa15”.

As to `CC(=O)SCCNC(=O)CCNC(=O)[C@H](O)C(C)(C)COP(=O)(O)OP(=O)(O)OC[C@H]1O[C@@H](n2cnc3c(N)ncnc32)[C@H](O)[C@@H]1OP(=O)(O)O` [acetyl-CoA], the dissociation constant result in data set [2] is given as “Representative ITC curve of acetyl-CoA titrated into SpNatA. The calculated dissociation constant is indicated”. The ITC entry in data set [3] is “binding signal was detected by ITC between GST-ScNaa50 and acetyl-CoA”.

B1: Saccharomyces cerevisiae NatA (ScNaa15/ScNaa10 complex), wild type (complex)
chain 1: MSRKRSTKPKPAAKIALKKENDQFLEALKLYEGKQYKKSLKLLDAILKKDGSHVDSLALKGLDLYSVGEKDDAASYVANAIRKIEGASASPICCHVLGIYMRNTKEYKESIKWFTAALNNGSTNKQIYRDLATLQSQIGDFKNALVSRKKYWEAFLGYRANWTSLAVAQDVNGERQQAINTLSQFEKLAEGKISDSEKYEHSECLMYKNDIMYKAASDNQDKLQNVLKHLNDIEPCVFDKFGLLERKATIYMKLGQLKDASIVYRTLIKRNPDNFKYYKLLEVSLGIQGDNKLKKALYGKLEQFYPRCEPPKFIPLTFLQDKEELSKKLREYVLPQLERGVPATFSNVKPLYQRRKSKVSPLLEKIVLDYLSGLDPTQDPIPFIWTNYYLSQHFLFLKDFPKAQEYIDAALDHTPTLVEFYILKARILKHLGLMDTAAGILEEGRQLDLQDRFINCKTVKYFLRANNIDKAVEVASLFTKNDDSVNGIKDLHLVEASWFIVEQAEAYYRLYLDRKKKLDDLASLKKEVESDKSEQIANDIKENQWLVRKYKGLALKRFNAIPKFYKQFEDDQLDFHSYCMRKGTPRAYLEMLEWGKALYTKPMYVRAMKEASKLYFQMHDDRLKRKSDSLDENSDEIQNNGQNSSSQKKKAKKEAAAMNKRKETEAKSVAAYPSDQDNDVFGEKLIETSTPMEDFATEFYNNYSMQVREDERDYILDFEFNYRIGKLALCFASLNKFAKRFGTTSGLFGSMAIVLLHATRNDTPFDPILKKVVTKSLEKEYSENFPLNEISNNSFDWLNFYQEKFGKNDINGLLFLYRYRDDVPIGSSNLKEMIISSLSPLEPHSQNEILQYYL
chain 2: MPINIRRATINDIICMQNANLHNLPENYMMKYYMYHILSWPEASFVATTTTLDCEDSDEQDENDKLELTLDGTNDGRTIKLDPTYLAPGEKLVGYVLVKMNDDPDQQNEPPNGHITSLSVMRTYRRMGIAENLMRQALFALREVHQAEYVSLHVRQSNRAALHLYRDTLAFEVLSIEKSYYQDGEDAYAMKKVLKLEELQISNFTHRRLKENEEKLEDDLESDLLE
The molecule B1 came in with an increase of the melting temperature of NatA on addition of Naa50 in data set [4] of 7.4 °C.

B2: Schizosaccharomyces pombe NatA (SpNaa15/SpNaa10 complex), wild type (complex)
chain 1: T1 sequence (O74985 1-729)
chain 2: T1 sequence (Q9UTI3 1-156)
For the molecule B2, the melting temperature of NatA with Naa50 added (NatA alone 37.8 °C) in data set [4] turned out to be 40.4 °C. Besides, the Kd – broadly, the free concentration of one partner at which half of the binding sites on the other are occupied at equilibrium, for simple one-to-one binding – in data set [5] came to 17 nM.

B3: human NatA (hNaa15/hNaa10 complex), wild type (complex)
chain 1: MPAVSLPPKENALFKRILRCYEHKQYRNGLKFCKQILSNPKFAEHGETLAMKGLTLNCLGKKEEAYELVRRGLRNDLKSHVCWHVYGLLQRSDKKYDEAIKCYRNALKWDKDNLQILRDLSLLQIQMRDLEGYRETRYQLLQLRPAQRASWIGYAIAYHLLEDYEMAAKILEEFRKTQQTSPDKVDYEYSELLLYQNQVLREAGLYREALEHLCTYEKQICDKLAVEETKGELLLQLCRLEDAADVYRGLQERNPENWAYYKGLEKALKPANMLERLKIYEEAWTKYPRGLVPRRLPLNFLSGEKFKECLDKFLRMNFSKGCPPVFNTLRSLYKDKEKVAIIEELVVGYETSLKSCRLFNPNDDGKEEPPTTLLWVQYYLAQHYDKIGQPSIALEYINTAIESTPTLIELFLVKAKIYKHAGNIKEAARWMDEAQALDTADRFINSKCAKYMLKANLIKEAEEMCSKFTREGTSAVENLNEMQCMWFQTECAQAYKAMNKFGEALKKCHEIERHFIEITDDQFDFHTYCMRKITLRSYVDLLKLEDVLRQHPFYFKAARIAIEIYLKLHDNPLTDENKEHEADTANMSDKELKKLRNKQRRAQKKAQIEEEKKNAEKEKQQRNQKKKKDDDDEEIGGPKEELIPEKLAKVETPLEEAIKFLTPLKNLVKNKIETHLFAFEIYFRKEKFLLMLQSVKRAFAIDSSHPWLHECMIRLFNTAVCESKDLSDTVRTVLKQEMNRLFGATNPKNFNETFLKRNSDSLPHRLSAAKMVYYLDPSSQKRAIELATTLDESLTNRNLQTCMEVLEALYDGSLGDCKEAAEIYRANCHKLFPYALAFMPPGYEEDMKITVNGDSSAEAEELANEI
chain 2: MNIRNARPEDLMNMQHCNLLCLPENYQMKYYFYHGLSWPQLSYIAEDENGKIVGYVLAKMEEDPDDVPHGHITSLAVKRSHRRLGLAQKLMDQASRAMIENFNAKYVSLHVRKSNRAALHLYSNTLNFQISEVEPKYYADGEDAYAMKRDLTQMADELRRHLELKEKGRHVVLGAIENKVESKGNSPPSSGEACREEKGLAAEDSGGDSKDLSEVSETTESTDVKDSSEASDSAS
Turning to B3, the “melting temperature of NatA with Naa50 added (NatA alone 44 °C)” value in data set [6] was determined as 46.6 °C.
